Results from US20030185819A1 (Biogen, published 2003).
Positions count from the first letter of the chain named. In names and notes the source's numbering stands.

What was measured:
[1] = target: T1, VLA-4 (integrin alpha4 beta1) on the human B cell line Ramos (human, UniProt P13612 34-1032; P05556 21-798); assay: potency assay of Example 7; which assay is not stated
T1 construct: whole, on cells; also called α4β1; VLA-4-expressing cells

[2] = target: T1, VLA-4 (integrin alpha4 beta1) on the …; assay: FACS, half-maximal binding to Ramos cells (n = 6)
Description: (§1) Briefly, 25 μl cells (4×10^6/ml in FACS buffer (PBS 2% FBS, 0.1% NaN₃) on ice are added to 5 μl of 5 μg/ml FITC or phycoerythrin (PE) conjugated antibody in FACS buffer, and incubated in V-bottomed microtiter wells on ice for 30 minutes. To the wells, 125 μl of FACS buffer is added, the plates are centrifuged at 350×g for 5 minutes, and the supernatant is shaken off. To each well is added 125 μl FACS buffer, then the cells are transferred to 12×75 mm Falcon polystyrene tubes and resuspended to a final volume of 250 μl in FACS buffer. The mixture is analyzed on a Becton Dickinson FACStar. The results of the FACS assays as represented by the calculated half-maximal binding […] Using humanized recombinant anti-VLA-4 antibodies made according to the present invention are shown in Table III and the number (n) of experiments performed for each value is indicated for the humanized antibodies. […] Murine HP1/2 binds half-maximally to Ramos cells at 15 ng/ml. The AS/SVMDY humanized antibody binds half-maximally to Ramos cells at 12 ng/ml. Thus, the two assays (i.e., adhesion and FACS assays) show an excellent correlation for the murine antibody and the humanized AS/SVMDY antibody.

[3] = target: T1, VLA-4 (integrin alpha4 beta1) on the …; assay: adhesion assay: inhibition of Ramos cell binding to immobilized rsVCAM1 (n = 14)
Description: (§2) Recombinant soluble VCAM1 was prepared and purified essentially as described by Lobb et al., 1991a. Soluble VCAM is diluted to 10 μg/ml in 0.05 M NaHCO₃, (15 mM NaHCO₃, 35 mM Na₂CO₃) pH 9.2. Then 50 μl/well is added into a Linbro Titertek polystyrene 96 well plate, flat bottom, Flow Labs catalog #76-231-05. The plate is incubated at 4° C. overnight.
(§3) For antibody blocking studies, 100 μl/well of murine HP1/2 MAb (anti-VLA-4) typically at 10 μg/ml in RPMI, 2% FBS are added to the rsVCAM1 coated plates and incubated for 30 minutes at room temperature prior to cell binding as described above. MAb HP1/2 (anti-VLA-4) or any recombinant humanized anti-VLA-4 antibody prepared as described herein must be preincubated with labelled cells for 30 minutes at room temperature prior to the cell binding. Concentrations of the antibodies preincubated will vary, but generally concentrations were in the range of about 1 μg/ml.
(§4) In these adhesion assays, murine HP1/2 inhibits Ramos cell binding completely at about 40 ng/ml, and half maximally at about 15 ng/ml ([…]). The results of adhesion assays as represented by the calculated half-maximal binding constants using humanized recombinant anti-VLA-4 antibodies made according to the present invention are shown in Table III. The number-(n) of experiments performed for each value is indicated for the recombinant humanized antibodies.

[4] = target: T1, VLA-4 (integrin alpha4 beta1) on the …; assay: FACS, half-maximal binding to Ramos cells (n = 2)
Description: as §1

[5] = target: T1, VLA-4 (integrin alpha4 beta1) on the …; assay: adhesion assay: inhibition of Ramos cell binding to immobilized rsVCAM1 (n = 2)
Description: as §2, §3

[6] = target: T1, VLA-4 (integrin alpha4 beta1) on the …; assay: FACS, half-maximal binding to Ramos cells (n = 3)
Description: as §1

[7] = target: T1, VLA-4 (integrin alpha4 beta1) on the …; assay: adhesion assay: inhibition of Ramos cell binding to immobilized rsVCAM1 (n = 4)
Description: as §2, §3
(§5) The potency of recombinant Stage 0, Stage 1, Stage 2 and Stage 3 antibodies having the VK1 (DQL) light chain that had been purified from stably transfected YB2/0 cell lines was measured in the adhesion assay, as shown in Table III.

[8] = target: T1, VLA-4 (integrin alpha4 beta1) on the …; assay: adhesion assay: inhibition of Ramos cell binding to immobilized rsVCAM1 (n = 6)
Description: as §2, §3, §5

[9] = target: T1, VLA-4 (integrin alpha4 beta1) on the …; assay: combination of adhesion and FACS assays (n = 3)
Description: as §2, §3
as §1, with “Thus, the two assays (i.e., adhesion and FACS assays) show an excellent correlation for the murine antibody and the humanized AS/SVMDY antibody.” left out

[10] = target: T1, VLA-4 (integrin alpha4 beta1) on the …; assay: FACS, half-maximal binding to Ramos cells (n = 1)
Description: as §1

[11] = target: T1, VLA-4 (integrin alpha4 beta1) on the …; assay: adhesion assay: inhibition of Ramos cell binding to immobilized rsVCAM1 (n = 3)
Description: as §2, §3, §5

[12] = target: T1, VLA-4 (integrin alpha4 beta1) on the …; assay: FACS, half-maximal binding to Ramos cells
Description: as §1

[13] = target: T1, VLA-4 (integrin alpha4 beta1) on the …; assay: adhesion assay: inhibition of Ramos cell binding to immobilized rsVCAM1
Description: as §2, §3, §5

[14] = target: T1, VLA-4 (integrin alpha4 beta1) on the …; assay: adhesion assay: inhibition of Ramos cell binding to immobilized rsVCAM1; molar value as printed
Description: as §2, §3, §4

T1 sequence (P13612 34-1032, chain 1 of 2): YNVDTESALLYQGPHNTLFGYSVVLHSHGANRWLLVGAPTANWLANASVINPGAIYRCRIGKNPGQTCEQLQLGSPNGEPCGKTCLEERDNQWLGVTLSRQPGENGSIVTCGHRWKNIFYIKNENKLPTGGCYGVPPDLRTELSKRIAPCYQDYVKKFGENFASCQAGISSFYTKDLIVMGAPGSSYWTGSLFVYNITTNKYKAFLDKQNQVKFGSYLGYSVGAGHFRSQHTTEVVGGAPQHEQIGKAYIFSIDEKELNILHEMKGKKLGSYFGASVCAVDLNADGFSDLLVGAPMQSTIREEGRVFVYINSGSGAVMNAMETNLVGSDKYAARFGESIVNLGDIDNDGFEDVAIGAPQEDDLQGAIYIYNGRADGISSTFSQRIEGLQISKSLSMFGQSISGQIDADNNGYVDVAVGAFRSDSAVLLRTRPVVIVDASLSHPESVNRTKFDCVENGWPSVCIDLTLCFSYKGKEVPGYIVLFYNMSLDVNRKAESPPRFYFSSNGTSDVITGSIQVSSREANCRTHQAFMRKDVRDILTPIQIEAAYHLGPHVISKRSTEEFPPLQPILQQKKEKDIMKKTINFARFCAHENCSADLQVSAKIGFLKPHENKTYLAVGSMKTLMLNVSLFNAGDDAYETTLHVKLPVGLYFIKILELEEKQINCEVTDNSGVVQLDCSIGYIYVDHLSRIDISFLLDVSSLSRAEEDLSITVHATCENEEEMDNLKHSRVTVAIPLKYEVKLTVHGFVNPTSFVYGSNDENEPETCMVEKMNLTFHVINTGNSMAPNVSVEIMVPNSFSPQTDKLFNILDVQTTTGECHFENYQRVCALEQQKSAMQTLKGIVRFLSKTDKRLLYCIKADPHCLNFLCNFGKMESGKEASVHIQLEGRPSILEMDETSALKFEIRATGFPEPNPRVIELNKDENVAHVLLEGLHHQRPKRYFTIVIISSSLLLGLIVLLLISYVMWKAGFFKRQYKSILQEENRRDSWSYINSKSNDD
T1 sequence (P05556 21-798, chain 2 of 2): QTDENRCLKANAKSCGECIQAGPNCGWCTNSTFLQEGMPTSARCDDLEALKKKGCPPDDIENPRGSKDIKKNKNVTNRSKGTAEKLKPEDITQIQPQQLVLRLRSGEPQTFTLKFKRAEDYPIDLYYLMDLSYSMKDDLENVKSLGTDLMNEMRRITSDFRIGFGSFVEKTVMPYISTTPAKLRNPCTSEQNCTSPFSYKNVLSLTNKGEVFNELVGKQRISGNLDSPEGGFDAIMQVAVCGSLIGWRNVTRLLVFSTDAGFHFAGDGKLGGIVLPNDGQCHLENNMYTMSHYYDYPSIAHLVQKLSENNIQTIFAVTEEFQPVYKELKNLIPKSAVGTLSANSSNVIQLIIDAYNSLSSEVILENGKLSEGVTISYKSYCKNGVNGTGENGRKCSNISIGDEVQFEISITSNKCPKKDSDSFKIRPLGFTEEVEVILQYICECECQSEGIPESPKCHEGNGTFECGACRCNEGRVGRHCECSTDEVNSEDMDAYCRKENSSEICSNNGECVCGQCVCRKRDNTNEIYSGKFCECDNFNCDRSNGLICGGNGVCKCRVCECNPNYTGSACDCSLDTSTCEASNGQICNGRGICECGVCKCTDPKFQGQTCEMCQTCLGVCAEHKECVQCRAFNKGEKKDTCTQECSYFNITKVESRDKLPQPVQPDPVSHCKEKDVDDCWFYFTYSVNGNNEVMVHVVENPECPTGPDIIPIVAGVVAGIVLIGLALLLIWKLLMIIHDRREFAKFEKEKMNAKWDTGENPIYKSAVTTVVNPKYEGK

B1: Stage 2 (Ser mutant) humanized anti-VLA-4 antibody with VK1 (DQL) light chain (antibody, V domains shown)
VH: QVQLQESGPGLVRPSQTLSLTCTVSGFNIKDTYMHWVRQPPGRGLEWIGRIDPASGDTKYDPKFQVRVTMLVDTSSNQFSLRLSSVTAADTAVYYCADGMWVSTGYALDFWGQGTTVTVSS
VL: DIQLTQSPSSLSASVGDRVTITCKASQSVTNDVAWYQQKPGKAPKLLIYYASNRYTGVPSRFSGSGSGTDFTFTISSLQPEDIATYYCQQDYSSPYTFGQGTKVEIKR
notes: Human IgG1 or IgG4 / kappa; also called Sage 2 (Ser mutant); S mutant
[1]
  fold lower potency than murine HP1/2: ~4 fold
[2]
  EC50: 0.047 µg/mL
[3]
  IC50: 0.056 µg/mL

B2: AS/SVMDY humanized anti-VLA-4 antibody (antibody, V domains shown)
VH: B1 VH with V24A
VL: B1 VL with D1S, Q3V, L4M, S60D, S67Y
notes: Human IgG1 or IgG4 / kappa; also called AS mutant heavy chain combined with the improved light chain (SVMDY); antibody produced by ATCC CRL 11175
[4]
  EC50: 0.012 µg/mL
[5]
  IC50: 0.012 µg/mL

B3: STAW/SVMDY humanized anti-VLA-4 antibody (antibody, V domains shown)
VH: B1 VH with Q78T, F79A, S80W
VL: B1 VL with D1S, Q3V, L4M, S60D, S67Y
notes: Human IgG1 or IgG4 / kappa; also called STAW with VK2 (SVMDY) light chain
[6]
  EC50: 0.035 µg/mL
[7]
  IC50: 0.025 µg/mL

B4: Stage 1 humanized anti-VLA-4 antibody with VK1 (DQL) light chain (antibody, V domains shown)
VH: B1 VH with S76K
VL: B1 VL
notes: Purified from YB2/0 cells; also called Stage 1 (Humanized heavy chain)
[8]
  IC50: 0.228 µg/mL

B5: Stage 3 AS humanized anti-VLA-4 antibody with VK1 (DQL) light chain (antibody, V domains shown)
VH: B1 VH with V24A
VL: B1 VL
notes: Human IgG1 or IgG4 / kappa; also called VH-AS
[4]
  EC50: 0.014 µg/mL
[5]
  IC50: 0.028 µg/mL

B6: Stage 3 KAITAS humanized anti-VLA-4 antibody with VK1 (DQL) light chain (antibody, V domains shown)
VH: B1 VH with R67K, V68A, M70I, L71T, V72A
VL: B1 VL
notes: Human IgG1 or IgG4 / kappa; also called VH-KAITAS
[9]
  half-maximal binding constant (adhesion and FACS combined): 90 ng/mL
[10]
  EC50: 0.1 µg/mL
[5]
  IC50: 0.085 µg/mL

B7: Stage 3 KRS humanized anti-VLA-4 antibody with VK1 (DQL) light chain (antibody, V domains shown)
VH: B1 VH with R38K, P40R
VL: B1 VL
notes: Human IgG1 or IgG4 / kappa; also called VH-KRS
[9]
  half-maximal binding constant (adhesion and FACS combined): 57 ng/mL
[10]
  EC50: 0.07 µg/mL
[5]
  IC50: 0.05 µg/mL

B8: Stage 3 SSE humanized anti-VLA-4 antibody with VK1 (DQL) light chain (antibody, V domains shown)
VH: B1 VH with A88S, A89E
VL: B1 VL
notes: Human IgG1 or IgG4 / kappa; also called VH-SSE
[9]
  half-maximal binding constant (adhesion and FACS combined): 80 ng/mL
[10]
  EC50: 0.04 µg/mL
[5]
  IC50: 0.1 µg/mL

B9: Stage 3 STAW humanized anti-VLA-4 antibody with VK1 (DQL) light chain (antibody, V domains shown)
VH: B1 VH with Q78T, F79A, S80W
VL: B1 VL
notes: Human IgG1 or IgG4 / kappa; also called VH-STAW
[6]
  EC50: 0.033 µg/mL
[11]
  IC50: 0.03 µg/mL

B10: murine HP1/2 monoclonal antibody (antibody, mouse IgG1, V domains shown)
VH: VKLQQSGAELVKPGASVKLFCTASGFNIKDTYMHWVKQRPQQGLEWIGRIDPASGDTKYDPKFQVKATITADTSSNTAWLQLSSLTSEDTAVYYCADGMWVSTGYALDFWGQGTTVTVSS
VL: SIVMTQTPKFLLVSAGDRVTITCKASQSVTNDVAWYQQKPGQSPKLLIYYASNRYTGVPDRFTGSGYGTDFTFTISTVQAEDLAVYFCQQDYSSPYTFGGGTKLEI
notes: The first eight residues of VH and the first four of VK in the listing are dictated by the PCR primers; also called MAb HP1/2 (anti-VLA-4); HP1/2 MAb
[12]
  EC50: 0.015 µg/mL
[13]
  IC50: 0.015 µg/mL
[14]
  IC50: ~10 µM

B11: humanized heavy chain of the Stage 2 construct (the Ser mutant) with murine light chain (antibody, V domains shown)
VH: B1 VH
VL: B10 VL
notes: also called Stage 2 heavy chain / murine light chain
[1]
  fold lower potency than murine HP1/2: ~2.5 fold

B12: Stage 0-B humanized anti-VLA-4 antibody with VK1 (DQL) light chain (antibody, V domains shown)
VH: B1 VH with N28T, I29F, K30S, S76K
VL: DIQLTQSPSSLSASVGDRVTITCKASQSVTNDVAWYQQKPGKAPKLLIYYASNRYTGVPSRFSGSGSGTDFTFTISSLQPEDIATYYCQQDYSSPYTFGQGTKVEIK
notes: Human IgG1 or IgG4 heavy and human kappa constant regions; also called STAGE O-B; Stage 0 (Humanized heavy chain)
[13]
  IC50: > 1 µg/mL

B13: Stage 0-C humanized anti-VLA-4 antibody with VK1 (DQL) light chain (antibody, V domains shown)
VH: B1 VH with N28T, I29F, K30S, S76K, D98R
VL: B12 VL
notes: Generated from Stage 0-A, which is Stage 1 with D94R; Kabat position 94 is linear position 98 of the humanized VH entries (CDR3 = 99-110); Human IgG1 or IgG4 / kappa; also called STAGE O-C; Stage 0 (Humanized heavy chain)
[13]
  IC50: > 1 µg/mL
